Assay results: the Human Domainome abundance scans (Beltran et al. 2025)
± gives the uncertainty stated by the source.

B1: Histone-lysine N-methyltransferase SETD2, residues 2382 to 2430; numbered along this chain, Q9BYW2 (parent)
chain: SPPKPKTIVLPPNWKTARDPEGKIYYYHVITRQTQWDPPTWESPGDDAS

Variants of: B1
Experiment: abundance fitness (aPCA) (normalised: wild type 0, dead -1); higher = more abundant; growth selection in yeast, the domain comes from the species named
Conditions: Homo sapiens

Abundance fitness: each site, then its substitutions
W14: M -0.721 ± 0.2; E -0.868 ± 0.078; T -0.935 ± 0.19; Y -0.566 ± 0.42; A -0.865 ± 0.054; H -0.615 ± 0.22; G -0.855 ± 0.086; L -0.925 ± 0.06; D -0.74 ± 0.36; P -1.03 ± 0.32
N13: L -0.039 ± 0.049; T -0.123 ± 0.078; S -0.362 ± 0.078; H -0.052 ± 0.039; V -0.523 ± 0.075; M 0.064 ± 0.094; A -0.581 ± 0.067; F 0.127 ± 0.082; E -0.61 ± 0.15; W -0.144 ± 0.097; G -0.191 ± 0.055; Y 0.107 ± 0.075; C -0.292 ± 0.056; P -0.692 ± 0.084; D -0.059 ± 0.075; Q -0.148 ± 0.13
T16: I -0.15 ± 0.075; C -0.213 ± 0.12; L 0.049 ± 0.048; N -0.723 ± 0.15; P -0.341 ± 0.12; A 0.027 ± 0.041; R -0.052 ± 0.045; M 0.218 ± 0.039; S 0.168 ± 0.035; H 0.095 ± 0.11; Q 0.136 ± 0.064; G -0.203 ± 0.057; D -0.47 ± 0.091; Y -0.164 ± 0.1; K -0.059 ± 0.092; W -0.026 ± 0.052
P12: C -0.844 ± 0.23; E 0.105 ± 0.084; S -0.195 ± 0.08; I -0.451 ± 0.16; T 0.092 ± 0.062; Q -0.238 ± 0.09; G -0.398 ± 0.039; M -0.007 ± 0.036; R 0.009 ± 0.045; H -0.528 ± 0.21; K 0.048 ± 0.073; W -0.309 ± 0.062; F -0.402 ± 0.13; D -0.013 ± 0.076; A 0.153 ± 0.048
K6: D -0.074 ± 0.14; F -0.121 ± 0.05; W -0.393 ± 0.097; E -0.19 ± 0.062; I -0.037 ± 0.077; Y -0.227 ± 0.1; M 0.018 ± 0.048; G 0.037 ± 0.053; A -0.032 ± 0.05; S 0.103 ± 0.059; Q 0.07 ± 0.034; P -0.35 ± 0.1; L -0.339 ± 0.041; C -0.303 ± 0.091; R -0.046 ± 0.032; N 0.018 ± 0.085; T -0.148 ± 0.073
S1: C 0.007 ± 0.08; N 0.442 ± 0.15; V -0.252 ± 0.14; A -0.597 ± 0.25; E -0.534 ± 0.32; F 0.246 ± 0.088; Y -0.521 ± 0.28
P2: H 0.314 ± 0.17; T 0.178 ± 0.034; Y 0.539 ± 0.1; S 0.237 ± 0.058; E -0.224 ± 0.082; M 0.026 ± 0.1; I 0.712 ± 0.1; V -0.065 ± 0.051; K -0.087 ± 0.054; G 0.045 ± 0.035; N 0.461 ± 0.098; A 0.131 ± 0.068; Q -0.007 ± 0.033; R -0.118 ± 0.062; L 0.317 ± 0.065; F 0.031 ± 0.14; W -0.293 ± 0.094
T7: D -0.134 ± 0.079; R 0.094 ± 0.045; M 0.026 ± 0.035; S 0.105 ± 0.039; L -0.214 ± 0.035; N 0.127 ± 0.099; G 0.138 ± 0.033; Q 0.013 ± 0.089; W -0.462 ± 0.095; E -0.045 ± 0.048; H 0.116 ± 0.12; V -0.148 ± 0.057; F 0.278 ± 0.094; A 0.028 ± 0.031; P -0.375 ± 0.066; I -0.212 ± 0.15; Y -0.155 ± 0.15; C -0.062 ± 0.037
P5: M 0.199 ± 0.065; S 0.163 ± 0.044; Q 0.007 ± 0.085; Y -0.066 ± 0.098; N 0.294 ± 0.046; V 0.162 ± 0.034; C -0.396 ± 0.079; G 0.118 ± 0.033; D 0.133 ± 0.082; K 0.159 ± 0.092; H -0.17 ± 0.13; F 0.133 ± 0.078; I 0.077 ± 0.035; T 0.211 ± 0.045; L 0.125 ± 0.034; E 0.057 ± 0.035; A 0.102 ± 0.058; W -0.63 ± 0.12; R -0.006 ± 0.035
L10: A -0.759 ± 0.072; M -0.314 ± 0.1; I -0.026 ± 0.12; N -0.46 ± 0.15; C -0.191 ± 0.059; H -0.255 ± 0.1; Y -0.249 ± 0.12; R -0.647 ± 0.06; V -0.242 ± 0.042; K -0.553 ± 0.2; T -0.431 ± 0.11; Q -0.529 ± 0.32; D -0.489 ± 0.15; S -0.684 ± 0.046; G -0.564 ± 0.035; F -0.142 ± 0.1
A17: P -0.747 ± 0.042; L -0.212 ± 0.066; C -0.146 ± 0.078; N 0.038 ± 0.14; H -0.728 ± 0.41; F -0.543 ± 0.15; G -0.022 ± 0.034; K -0.131 ± 0.1; D -0.092 ± 0.054; Q -0.845 ± 0.28; E -0.301 ± 0.061; M -0.024 ± 0.08; I -0.184 ± 0.05
K15: Q -0.291 ± 0.26; H -0.153 ± 0.41; R 0.11 ± 0.39
